Test results as given in patent US10736970B2, “Polypeptide complex of titin-telethonin beta-pleated sheet structure as polypeptide drug carrier, method of using the polypeptide complex, and fusion protein complex thereof” (TIANJIN INSTITUTE OF INDUSTRIAL BIOTECHNOLOGY, CHINESE …, priority 2015, dated 2020).

Legend:
SD rats [1] = experiment: Oral glucose tolerance test (OGTT) in rats, blood glucose; assay type: in vivo, rat; conditions: single i.p. 25 nmol/kg
Protocol: (§1) The rats in the first three groups were given 25 nmol/kg by intraperitoneal injection, the rats in the PBS group were given the same volume of PBS, and the blood glucose was measured by a blood glucose meter. After 30 min, 2 g glucose/kg body weight was given by oral gavage, which was assumed to occur at 0 min, and then the blood glucose level was measured respectively at 10, 30, 60, 90, and 120 min. The area under curve (AUC) was calculated using Graphpad Prism 6.0 software. During the process, blood was taken from the tail vein respectively at 0, 10, and 30 min, added to a centrifuge tube containing EDTA-Na2, and centrifuged at 4000 rpm for 10 min. The supernatant was collected, and the insulin content was measured by using the Rat/Mouse Insulin Elisa kit (Millipore).
SD rats of about 250 g were randomized into 4 groups (n=5), including a 1 nmol/kg group, a 5 nmol/kg group, a 25 nmol/kg group, and a PBS group.
The animals were allowed to free access to food for 12 h, and then fasted for 12 h. Then, OGTT was carried out. […]
The blood glucose level was measured by a blood glucose meter, and this was assumed to occur at −30 min. […] Then, the blood glucose was measured respectively at 10, 30, 60, 90, and 120 min. The area under curve (AUC) was calculated using Graphpad Prism 6.0 software.

SD rats [2] = experiment: Insulin content in rat plasma during OGTT; assay type: in vivo; conditions: single i.p. 25 nmol/kg
Protocol: as §1
In the OGTT test of each group, blood was taken from the tail vein of rats at a time ranging from 10 to 30 min, and added dropwise to an Ep tube containing EDTA-Na2. The plasma was removed, and the insulin content was determined by using the Insulin Elisa kit (Millipore).
(§2) During the process, blood was taken from the tail vein at a time ranging from 10 to 30 min, added to a centrifuge tube containing EDTA-Na2, and centrifuged at 4000 rpm for 10 min. The supernatant was collected, and the insulin content was measured by using the Rat/Mouse Insulin Elisa kit (Millipore).

[3] = literature / background value; cited from earlier work
[4] = rat, in vivo
Protocol: Blood was sampled from the tail respectively at 0, 0.5, 1, 1.5, 2, 4, 6, and 10 h, and dripped into an Ep tube pretreated with EDTA-Na2. A DPP-4 inhibitor was immediately added (in 30 s) after the blood was sampled.
Then, blood was taken respectively at 1, 2, 4, 8, and 24 h, and added dropwise to an Ep tube pretreated with EDTA-Na2.
(§3) 1 nmol GLZ/TeN was administered to the SD rats (about 250 g) by intravenous (i.v) injection at the tail and by subcutaneous injection (s.c), and this was assumed to occur at 0 h. Blood was sampled from the tail vein of the rats respectively at 0.05, 0.5, 2, 4, 8, 11, 24, and 48 h, and dripped into an Ep tube pretreated with EDTA-Na2. The protease inhibitor protinin was immediately added (in 30 s) after the blood was sampled.
as §3, with “2.8” for “1”, “GLRecom” for “GLZ/TeN”, “tail,” for “tail and by subcutaneous injection (s.c),”, “5, 10,” for “4, 8, 11,”, “a centrifugation” for “an Ep”

C57BL/6 mice [5] = experiment: OGTT in C57BL/6 mice, blood glucose; assay type: in vivo, mouse; conditions: i.p. 10 nmol/kg
Protocol: C57BL/6 mice of about 25 g were randomized into 3 groups (n=5), including a PBS group, a Z1Z2/GLTe-G group, and a GLRecom group. The animals in the Z1Z2/GLTe-G group and the GLRecom group were given the Z1Z2/GLTe-G and GLRecom respectively by intraperitoneal injection at a dosage of 10 nmol/kg body weight, and the animals in the PBS group were given the same volume of PBS. The blood glucose level was measured by a blood glucose meter, and this was assumed to occur at −30 min. After 30 min, 2 g glucose/kg body weight was given by oral gavage, and this was assumed to occur at 0 min. Then, the blood glucose was measured respectively at 10, 30, 60, 90, and 120 min. The AUC was calculated by using the Graphpad Prism 6.0 software.

C57BL/6 mice [6] = experiment: Insulin content during OGTT in C57BL/6 mice; assay type: in vivo, mouse; conditions: i.p. 10 nmol/kg
Protocol: as §2

## CC[C@H](C)[C@H](NC(=O)[C@H](Cc1ccccc1)NC(=O)[C@H](CCC(=O)O)NC(=O)[C@H](CCCCN)NC(=O)[C@H](C)NC(=O)[C@H](C)NC(=O)[C@H](CCC(N)=O)NC(=O)CNC(=O)[C@H](CCC(=O)O)NC(=O)[C@H](CC(C)C)NC(=O)[C@H](Cc1ccc(O)cc1)NC(=O)[C@H](CO)NC(=O)[C@H](CO)NC(=O)[C@@H](NC(=O)[C@H](CC(=O)O)NC(=O)[C@H](CO)NC(=O)[C@@H](NC(=O)[C@H](Cc1ccccc1)NC(=O)[C@@H](NC(=O)CNC(=O)[C@H](CCC(=O)O)NC(=O)[C@H](C)NC(=O)[C@@H](N)Cc1c[nH]cn1)[C@@H](C)O)[C@@H](C)O)C(C)C)C(=O)N[C@@H](C)C(=O)N[C@@H](Cc1c[nH]c2ccccc12)C(=O)N[C@@H](CC(C)C)C(=O)N[C@H](C(=O)N[C@@H](CCCCN)C(=O)NCC(=O)N[C@@H](CCCNC(=N)N)C(=O)NCC(=O)O)C(C)C [GLP-1, Glucagon-like peptide 1, reference compound]
SD rats [1]
  period of time of effective blood glucose control in OGTT: 30 min
SD rats [1]; 2 g glucose/kg oral after 30 min
  effect on blood glucose level in OGTT: significantly reduce the blood glucose level
SD rats [2]
  blood insulin content during OGTT: significantly increase the blood insulin content

## Peptide Tyrosin-tyrosin [PYY]
[3]
  in-vivo half-life period of native peptide: 8 min

B1: GLRecom: Single fusion protein: GLP-1(8G)-Z1Z2, Telethonin beta-pleated sheet region and second Z1Z2 connected via linkers (SEQ ID NO: 20), 60.0 kDa (protein)
chain: MKHHHHHHPMSDYDIPTTENLYFQHGEGTFTSDVSSYLEGQAAKEFIAWLVKGRGGGGGSGGGGSGGGGSAMATQAPTFTQPLQSVVVLEGSTATFEAHISGFPVPEVSWFRDGQVISTSTLPGVQISFSDGRAKLTIPAVTKANSGRYSLKATNGSGQATSTAELLVKAETAPPNFVQRLQSMTVRQGSQVRLQVRVTGIPTPVVKFYRDGAEIQSSLDFQISQEGDLYSLLIAEAYPEDSGTYSVNATNSVGRATSTAELLVQGSGSGSAPGTPGGGGSGGGGSGGGGSMATSELSSEVSEENSERREAFWAEWKDLTLSTRPEEGSSLHEEDTQRHETYHQQGQSQVLVQRSPWLMMRMGILGRGLQEYQLPYQRVLPGASGPAGSPTGSGPGSAGSGPGSAGMATQAPTFTQPLQSVVVLEGSTATFEAHISGFPVPEVSWFRDGQVISTSTLPGVQISFSDGRAKLTIPAVTKANSGRYSLKATNGSGQATSTAELLVKAETAPPNFVQRLQSMTVRQGSQVRLQVRVTGIPTPVVKFYRDGAEIQSSLDFQISQEGDLYSLLIAEAYPEDSGTYSVNATNSVGRATSTAELLVQG
[4]
  half-life period after intravenous injection: 13.4 ± 0.8 h
[4]; iv
  half-life period relative to Z1Z2/GLTe-G complex (4 h): more than 3 times
C57BL/6 mice [5]
  AUC of blood glucose in OGTT: significantly reduced
C57BL/6 mice [5]; 2 g/kg glucose
  blood glucose reducing effect in OGTT: significant blood glucose reducing effect
C57BL/6 mice [5]; 120 min
  blood glucose level at 120 min in OGTT: still significantly reduced
C57BL/6 mice [6]
  level of insulin secretion: significantly enhance the level of insulin secretion
